Measurements as given in patent US10087225B2, “Formulation of MK2 inhibitor peptides” (MOERAE MATRIX, INC., priority 2015, dated 2018).

Key:
CK1γ1(h) = CK1γ1(h) (Homo sapiens, UniProt Q9HCP0); assay: Kinase Profiling Assay; format: biochemical; conditions: 100 μM
CK1γ3(h) = CK1γ3(h) (Homo sapiens, UniProt Q9Y6M4); assay: Kinase Profiling Assay; format: biochemical; conditions: 100 μM
CK2α2(h) = CK2α2(h) (Homo sapiens, UniProt P19784); assay: Kinase Profiling Assay; format: biochemical; conditions: 100 μM
Plk1(h) = Plk1(h) (Homo sapiens, UniProt P53350); assay: Kinase Profiling Assay; format: biochemical; conditions: 100 μM
TAK1(h) = target: T1, TAK1(h) (Homo sapiens, UniProt O43318); assay: Kinase Profiling Assay; format: biochemical; conditions: 100 μM
T1 sequence (O43318 1-303 limits assumed): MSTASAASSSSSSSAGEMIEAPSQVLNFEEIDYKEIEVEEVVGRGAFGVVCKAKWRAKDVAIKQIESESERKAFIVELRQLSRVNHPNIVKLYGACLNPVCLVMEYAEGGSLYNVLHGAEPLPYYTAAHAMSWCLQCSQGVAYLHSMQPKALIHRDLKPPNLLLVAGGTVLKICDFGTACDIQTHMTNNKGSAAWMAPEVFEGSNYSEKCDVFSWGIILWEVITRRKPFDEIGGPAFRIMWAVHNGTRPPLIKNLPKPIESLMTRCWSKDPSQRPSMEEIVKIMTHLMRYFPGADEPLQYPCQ

Tie2(R849W)(h) = Tie2(R849W)(h) (Homo sapiens, UniProt Q02763, R849W); assay: Kinase Profiling Assay; format: biochemical; conditions: 100 μM
FGFR2(N549H)(h) = FGFR2(N549H)(h) (Homo sapiens, UniProt P21802, N549H); assay: Kinase Profiling Assay; format: biochemical
MKK7β(h) = MKK7β(h) (Homo sapiens, UniProt O14733); assay: Kinase Profiling Assay; format: biochemical
HCAVSMCs [1] = assay: Cytosolic vs. organelle bound peptide by digitonin semi-permeabilization; format: cell-based, human; conditions: Bafilomycin treatment
Experimental: In order to quantify the cytosolic bioavailability of the MK2i and HSP20 peptides a method to separate cytosolic and organelle bound (i.e. endosomal, lysosomal, golgi, etc.) peptide was adapted from the methods developed by Liu et a140. The procedure was optimized for this experiment based upon LDH release from HCAVSMCs treated with varying concentrations of digitonin (Calbiochem) in buffer (150 mM NaCl, 0.2 mM EDTA, 20 mM HEPES-NaOH (pH 7.4), 2 mM DTT and 2 mM MgCL2) on ice for 10 mins on a rotary shaker operating at 100 RPM (supplementary FIG. 3). A concentration of 25 μg/mL was then chosen as the optimal digitonin concentration for selective semi-permeabilization of the HCAVSMC membrane and subsequently used for the analysis of intracellular peptide distribution.
To quantify intracellular distribution of the MK2i and p-HSP20 peptides, HCAVSMCs were seeded into a 96 well plate at a density of 20,000 cells/cm2 and allowed to adhere overnight in complete growth medium. A portion of the cells were pretreated with 500 nM Bafilomycin A1 (Sigma) for 30 minutes, and the Bafilomycin was included in subsequent peptide/NP treatment and in the post-treatment incubation phase to inhibit endosomal acidification. […] Treatments were removed and cells were incubated in fresh medium with or without 500 nM Bafilomycin A1 for 6 hours. […]

[2] = Heat-accelerated stability of MMI-0100 in buffers pH 4-8 (pH, appearance, HPLC assay, impurities); conditions: in citrate
From the text: Testing of stability samples included pH (initial only), appearance, HPLC assay and impurities. CC=clear and colorless.

HCAVSMCs [3] = assay: Flow cytometric uptake and retention of MK2i-NPs and p-HSP20-NPs (30 min treatment); conditions: 3 days after treatment removal
Experimental: For MK2i-NP and HSP20-NP studies, An amine-reactive Alexa-488 succinimidyl ester (Life Technologies) was dissolved in DMSO and mixed at a 1 to 3 molar ratio with the MK2i or p-HSP20 peptide in 100 mM sodium bicarbonate buffer (pH=8.3) and allowed to react for 3 hours. Unreacted fluorophore and organic solvent were removed using a PD-10 miditrap G-10 desalting column, and the fluorescently labeled MK2i and p-HSP20 peptides were lyophilized. […] Similarly, PPAA was mixed with fluorescently labeled p-HSP20 at a CR of [NH3^+]/[COO^−]=1:3 and syringe filtered through a 0.45 μm PTFE filter to form fluorescent HSP20-NPs. HCAVSMCs were grown to 80-90% confluence, harvested, and seeded at 20,000 cells/well in a 24 well plate and allowed to adhere overnight. […] Following treatment, cells were washed 2× in PBS, and either immediately harvested or incubated in complete growth media for an additional 72 hours. Cells were harvested with 0.05% trypsin-EDTA, centrifuged, and suspended in 0.1% Trypan blue in PBS (−/−) for analysis on a FACSCalibur flow cytometer (Becton Dickinson) with BD CellQuest™ Pro software (V 5.2). Data was exported and analyzed with FlowJo software (V 7.6.4). All samples were run in triplicate.

Ab1(h) = Ab1(h) (Homo sapiens, UniProt P00519); assay: Kinase Profiling Assay; format: biochemical; conditions: 100 μM
Ab1(h), sequence (P00519 whole entry): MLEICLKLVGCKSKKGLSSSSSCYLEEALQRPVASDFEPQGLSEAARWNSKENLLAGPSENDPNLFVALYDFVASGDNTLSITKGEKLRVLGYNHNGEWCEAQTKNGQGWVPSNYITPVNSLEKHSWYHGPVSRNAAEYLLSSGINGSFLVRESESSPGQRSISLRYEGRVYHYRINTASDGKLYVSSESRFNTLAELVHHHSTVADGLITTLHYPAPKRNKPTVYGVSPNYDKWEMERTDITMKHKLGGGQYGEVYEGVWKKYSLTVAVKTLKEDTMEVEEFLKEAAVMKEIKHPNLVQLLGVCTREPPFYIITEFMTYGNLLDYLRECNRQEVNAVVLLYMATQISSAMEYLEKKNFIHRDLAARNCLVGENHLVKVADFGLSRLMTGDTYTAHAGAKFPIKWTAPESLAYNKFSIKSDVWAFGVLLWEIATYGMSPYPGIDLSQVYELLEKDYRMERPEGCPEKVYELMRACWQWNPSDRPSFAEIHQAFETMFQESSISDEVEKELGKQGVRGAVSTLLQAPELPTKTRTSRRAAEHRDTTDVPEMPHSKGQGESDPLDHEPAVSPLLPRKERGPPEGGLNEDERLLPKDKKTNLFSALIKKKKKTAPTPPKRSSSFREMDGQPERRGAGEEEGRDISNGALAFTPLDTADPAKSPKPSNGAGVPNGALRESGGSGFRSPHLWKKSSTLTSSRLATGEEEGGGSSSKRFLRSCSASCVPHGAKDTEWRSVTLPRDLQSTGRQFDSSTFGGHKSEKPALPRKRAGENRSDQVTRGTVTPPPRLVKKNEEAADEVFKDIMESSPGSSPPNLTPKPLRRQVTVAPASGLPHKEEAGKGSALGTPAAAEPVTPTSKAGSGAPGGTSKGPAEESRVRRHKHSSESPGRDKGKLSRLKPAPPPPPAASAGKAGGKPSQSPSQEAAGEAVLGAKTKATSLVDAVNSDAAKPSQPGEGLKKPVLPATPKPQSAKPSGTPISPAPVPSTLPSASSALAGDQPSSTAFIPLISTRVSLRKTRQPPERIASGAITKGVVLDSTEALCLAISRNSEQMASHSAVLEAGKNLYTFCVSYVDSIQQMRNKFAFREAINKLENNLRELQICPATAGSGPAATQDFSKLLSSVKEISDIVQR

CDK2/cyclinA(h) = CDK2/cyclinA(h) (Homo sapiens, UniProt P24941); assay: Kinase Profiling Assay; format: biochemical; conditions: 100 μM
CDK2/cyclinE(h) = CDK2/cyclinE(h) (Homo sapiens, UniProt P24941); assay: Kinase Profiling Assay; format: biochemical; conditions: 100 μM
CDK3/cyclinE(h) = CDK3/cyclinE(h) (Homo sapiens, UniProt Q00526); assay: Kinase Profiling Assay; format: biochemical; conditions: 100 μM
CHK2(h) = CHK2(h) (Homo sapiens, UniProt O96017); assay: Kinase Profiling Assay; format: biochemical; conditions: 100 μM
CHK2(h), sequence (O96017 whole entry): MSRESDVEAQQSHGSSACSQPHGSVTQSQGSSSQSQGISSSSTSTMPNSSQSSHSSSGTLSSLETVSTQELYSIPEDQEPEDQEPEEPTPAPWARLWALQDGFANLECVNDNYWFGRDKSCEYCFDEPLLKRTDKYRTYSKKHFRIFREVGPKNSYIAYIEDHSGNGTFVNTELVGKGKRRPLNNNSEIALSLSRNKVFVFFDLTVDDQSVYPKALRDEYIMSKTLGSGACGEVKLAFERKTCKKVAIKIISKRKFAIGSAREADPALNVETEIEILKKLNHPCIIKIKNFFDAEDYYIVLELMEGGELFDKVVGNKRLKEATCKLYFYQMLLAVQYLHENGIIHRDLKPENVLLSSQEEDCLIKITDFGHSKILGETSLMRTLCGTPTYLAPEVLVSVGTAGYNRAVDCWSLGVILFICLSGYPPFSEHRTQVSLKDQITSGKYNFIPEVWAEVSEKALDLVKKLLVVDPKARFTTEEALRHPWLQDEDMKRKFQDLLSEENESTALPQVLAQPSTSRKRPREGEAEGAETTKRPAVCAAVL

GSK3α(h) = GSK3α(h) (Homo sapiens, UniProt P49840); assay: Kinase Profiling Assay; format: biochemical; conditions: 100 μM
GSK3α(h), sequence (P49840 whole entry): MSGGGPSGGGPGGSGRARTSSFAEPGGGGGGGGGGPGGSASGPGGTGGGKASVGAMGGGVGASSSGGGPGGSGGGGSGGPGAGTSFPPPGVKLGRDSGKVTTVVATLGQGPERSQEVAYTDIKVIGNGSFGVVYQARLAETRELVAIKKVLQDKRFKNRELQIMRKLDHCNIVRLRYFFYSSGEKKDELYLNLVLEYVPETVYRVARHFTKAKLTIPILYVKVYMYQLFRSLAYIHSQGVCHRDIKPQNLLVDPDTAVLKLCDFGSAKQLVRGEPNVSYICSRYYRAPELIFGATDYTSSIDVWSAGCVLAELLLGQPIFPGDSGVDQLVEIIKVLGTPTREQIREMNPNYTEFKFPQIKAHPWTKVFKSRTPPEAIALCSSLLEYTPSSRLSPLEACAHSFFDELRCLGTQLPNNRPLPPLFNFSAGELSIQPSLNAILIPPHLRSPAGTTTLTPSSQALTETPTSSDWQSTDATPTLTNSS

Hck(h) = Hck(h) (Homo sapiens, UniProt P08631); assay: Kinase Profiling Assay; format: biochemical; conditions: 100 μM
HIPK3(h) = HIPK3(h) (Homo sapiens, UniProt Q9H422); assay: Kinase Profiling Assay; format: biochemical; conditions: 100 μM
Lck(h) = Lck(h) (Homo sapiens, UniProt P06239); assay: Kinase Profiling Assay; format: biochemical; conditions: 100 μM
MRCKβ(h) = MRCKβ(h) (Homo sapiens, UniProt Q9Y5S2); assay: Kinase Profiling Assay; format: biochemical; conditions: 100 μM
MRCKβ(h), sequence (Q9Y5S2 whole entry): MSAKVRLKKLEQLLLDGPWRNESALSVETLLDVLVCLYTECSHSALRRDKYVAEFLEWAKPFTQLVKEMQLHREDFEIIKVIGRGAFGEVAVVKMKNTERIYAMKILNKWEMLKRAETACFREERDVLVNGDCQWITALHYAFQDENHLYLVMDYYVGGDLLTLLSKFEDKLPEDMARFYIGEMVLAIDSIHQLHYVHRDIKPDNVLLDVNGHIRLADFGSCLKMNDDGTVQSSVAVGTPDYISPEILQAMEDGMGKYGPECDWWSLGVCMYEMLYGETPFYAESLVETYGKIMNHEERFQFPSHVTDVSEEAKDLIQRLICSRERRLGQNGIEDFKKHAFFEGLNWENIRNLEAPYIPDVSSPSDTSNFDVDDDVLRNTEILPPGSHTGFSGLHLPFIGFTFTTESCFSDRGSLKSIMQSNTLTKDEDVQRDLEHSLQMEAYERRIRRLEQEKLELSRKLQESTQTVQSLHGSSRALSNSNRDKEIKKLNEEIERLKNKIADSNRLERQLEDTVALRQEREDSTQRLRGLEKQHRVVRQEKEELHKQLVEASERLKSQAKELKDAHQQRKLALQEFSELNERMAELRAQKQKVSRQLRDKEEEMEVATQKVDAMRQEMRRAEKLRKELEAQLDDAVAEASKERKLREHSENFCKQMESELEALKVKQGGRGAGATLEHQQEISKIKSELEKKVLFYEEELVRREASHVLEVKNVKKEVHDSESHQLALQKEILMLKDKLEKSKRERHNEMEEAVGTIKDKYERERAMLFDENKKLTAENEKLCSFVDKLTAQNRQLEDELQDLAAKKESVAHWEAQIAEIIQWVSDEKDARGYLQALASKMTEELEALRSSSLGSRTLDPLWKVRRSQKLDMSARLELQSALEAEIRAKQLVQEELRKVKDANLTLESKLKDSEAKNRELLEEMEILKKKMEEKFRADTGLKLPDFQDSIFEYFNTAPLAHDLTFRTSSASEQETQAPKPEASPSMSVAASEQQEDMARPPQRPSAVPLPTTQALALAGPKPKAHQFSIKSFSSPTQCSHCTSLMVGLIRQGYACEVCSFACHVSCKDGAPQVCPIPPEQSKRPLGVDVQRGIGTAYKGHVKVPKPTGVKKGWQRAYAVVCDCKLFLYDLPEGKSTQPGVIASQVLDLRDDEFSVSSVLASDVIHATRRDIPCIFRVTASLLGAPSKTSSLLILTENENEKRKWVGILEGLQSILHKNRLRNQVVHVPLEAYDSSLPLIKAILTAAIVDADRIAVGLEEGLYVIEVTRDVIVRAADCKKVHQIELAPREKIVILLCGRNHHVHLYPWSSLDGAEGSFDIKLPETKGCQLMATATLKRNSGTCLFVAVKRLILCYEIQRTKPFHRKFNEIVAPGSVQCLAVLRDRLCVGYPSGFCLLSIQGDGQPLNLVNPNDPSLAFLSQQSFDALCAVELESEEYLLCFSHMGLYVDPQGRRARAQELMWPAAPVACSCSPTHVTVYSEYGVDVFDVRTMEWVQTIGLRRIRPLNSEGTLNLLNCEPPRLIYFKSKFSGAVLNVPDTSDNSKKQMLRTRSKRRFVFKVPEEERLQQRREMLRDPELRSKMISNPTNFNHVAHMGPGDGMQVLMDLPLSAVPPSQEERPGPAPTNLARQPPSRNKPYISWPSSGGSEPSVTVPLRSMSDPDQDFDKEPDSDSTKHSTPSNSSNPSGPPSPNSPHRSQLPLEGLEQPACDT

ROCK-I(h) = ROCK-I(h) (Homo sapiens, UniProt Q13464); assay: Kinase Profiling Assay; format: biochemical; conditions: 100 μM
SAPK2a(h) = SAPK2a(h) (Homo sapiens, UniProt Q16539); assay: Kinase Profiling Assay; format: biochemical; conditions: 100 μM
SIK(h) = SIK(h) (Homo sapiens, UniProt P57059); assay: Kinase Profiling Assay; format: biochemical; conditions: 100 μM

CK1γ1(h), sequence (Q9HCP0 whole entry): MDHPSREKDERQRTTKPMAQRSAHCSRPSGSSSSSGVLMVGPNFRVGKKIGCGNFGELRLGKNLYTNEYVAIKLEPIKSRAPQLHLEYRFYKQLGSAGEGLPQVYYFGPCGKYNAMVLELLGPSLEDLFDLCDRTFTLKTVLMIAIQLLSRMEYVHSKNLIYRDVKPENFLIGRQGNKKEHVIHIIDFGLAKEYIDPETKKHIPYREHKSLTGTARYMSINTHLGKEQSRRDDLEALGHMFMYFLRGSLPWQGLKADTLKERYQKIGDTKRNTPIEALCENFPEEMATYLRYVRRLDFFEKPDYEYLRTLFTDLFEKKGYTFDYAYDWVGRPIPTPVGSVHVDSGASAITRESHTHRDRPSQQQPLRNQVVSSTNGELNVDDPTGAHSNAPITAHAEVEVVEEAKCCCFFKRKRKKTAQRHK
CK1γ3(h), sequence (Q9Y6M4 whole entry): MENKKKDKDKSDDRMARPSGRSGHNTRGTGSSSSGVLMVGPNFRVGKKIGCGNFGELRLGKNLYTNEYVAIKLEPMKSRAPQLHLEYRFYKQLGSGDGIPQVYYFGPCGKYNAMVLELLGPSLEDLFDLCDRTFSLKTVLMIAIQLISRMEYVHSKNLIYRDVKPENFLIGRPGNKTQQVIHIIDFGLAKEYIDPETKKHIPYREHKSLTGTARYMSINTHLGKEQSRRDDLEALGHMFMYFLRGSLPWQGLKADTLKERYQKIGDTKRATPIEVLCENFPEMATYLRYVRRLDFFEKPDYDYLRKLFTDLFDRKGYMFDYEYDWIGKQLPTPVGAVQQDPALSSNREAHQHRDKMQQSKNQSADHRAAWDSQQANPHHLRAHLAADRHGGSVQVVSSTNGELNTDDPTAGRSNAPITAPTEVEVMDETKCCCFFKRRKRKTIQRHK

## YARAAARQARAKALNRQLGVA (Mammalian) [MMI-0200]
CK1γ1(h)
  % activity: 98%
CK1γ3(h)
  % activity: 96%
CK2α2(h)
  % activity: 88%
Plk1(h)
  % activity: 128%
TAK1(h)
  % activity: 124%
Tie2(R849W)(h)
  % activity: 89%

## H-YARAAARQARAKALARQLGVAA-OH [MMI-0100]
FGFR2(N549H)(h)
  activity at 100 µM: 95%
MKK7β(h)
  activity at 100 µM: 137%
HCAVSMCs [1]
  cytosolic fraction of internalized free peptide: 9.64%±8.17%
[2]
  pH of greatest stability: 6
HCAVSMCs [3]
  intracellular peptide retention (% of initial uptake remaining): 54%

## HRRIKAWLKKIKALARQLGVAA (Mammalian) [MMI-0500]
Ab1(h)
  % activity: 16%
CDK2/cyclinA(h)
  % activity: 87%
CDK2/cyclinE(h)
  % activity: 19%
CDK3/cyclinE(h)
  % activity: 8%
CHK2(h)
  % activity: 13%
GSK3α(h)
  % activity: 175%
Hck(h)
  % activity: 78%
HIPK3(h)
  % activity: 85%
Lck(h)
  % activity: 359%
MRCKβ(h)
  % activity: -10%
ROCK-I(h)
  % activity: 17%
SAPK2a(h)
  % activity: 52%
SIK(h)
  % activity: 40%
